From a protein production outcome set (Wang et al. 2014)

Test: label from the status in PepcDB records

Row | Sequence | protein production
1 | MGHHHHHHSHMDNHNPMKDIEVTSSPDDSIGCLSFSPPTLPGNFLIAGSWANDVRCWEVQDSGQTIPKAQQMHTGPVLDVCWSDDGSKVFTASCDKTAKMWDLSSNQAIQIAQHDAPVKTIHWIKAPNYSCVMTGSWDKTLKFWDTRSSNPMMVLQLPERCYCADVIYPMAVVATAERGLIVYQLENQPSEFRRIESPLKHQHRCVAIFKDKQNKPTGFALGSIEGRVAIHYINPPNPAKDNFTFKCHRSNGTNTSAPQDIYAVNGIAFHPVHGTLATVGSDGRFSFWDKDARTKLKTSEQLDQPISACCFNHNGNIFAYASSYDWSKGHEFYNP | failed
2 | MQEGNFKAGTYSAARQGIGGDVTVTLDIDAQGKVLKSTIDALEETPEVGGEAAIELAKTMTEKQSIQVDGVSGATMTSGAVHEAAEDAYSQAKANLEHHHHHH | not failed
3 | MKEIESKTSAKIITDTFVRIFLIFSLLITIIVSGIVAFTSLQIRKSEGAALLNSVQTAATNGQVNWDEFKLDSEKDEKATFVRLTSPSGQREESQGTTNFLKSRKSWGNFSLLRDDIFLYSSKTSKNGTKAELWLNINVVVKSMIRAILVIIAVMIFLFFLALILIQKAARTISQPLTDIVVATDGKDVKQVPVSKNPLEVHQLSQSFNRLLNRLNQKIENEQQFVSDASHELRTPVAAIRGHVNLLKRRWHEHPEIVDESLSYIDEESMRMKVLIENLLTISRGNHLEIKKERINLSKFTDKVVSEIQLALRQKINFDIQTDLFVSMDKMALYKIIIIFLENAGKYSPSNSEITINITLENHQVDFQVADEGIGVPEEEKDNIFERFYRIDKSRSSEIPGTGLGLAIAKEYAQLNDAKVFVSNNSPKGSTFHLLMESIEN | failed
4 | RPAVFPRMGVLPARVALLGQGQHWGVDFCLNVFRANFAEDREIQSEDVVRDLLRAQDLDADALIAQARQESTKEALRKQVDRARALGIFGAPTFMVDGEMFWGNDRLEDALA | failed
5 | MENFAEIVGIGPAGVISITGGGGKTSLMFHLARQLAYSGKRVLTTTTTKILAPSVEESRTLLISQDPQVILRHAKAHPGPGVHVSAAAGHIPHTEKLQGFPREAIRTFEDSGEFDWVVVEADGAARKPLKAPAAHEPVIPGNSTIVVALAGLEVLGRPLGEEMVFRSELAGELMQIPQGETITVPALARLLAHPSGGFKGAPPQARRFIFLNKADTPELQEKGGEVALQLKEIAPSVAEAVIVGQLRQEITLHRVYPRGELEHHHHHH | not failed
